Patent US7657380
Changes are numbered by the printed parent chain.

T1: human CD30 (commercial, conjugated to digoxigenin) (human, UniProt P28908 19-379, limits assumed, conjugated to digoxigenin (DIG))
T1 sequence (looked up): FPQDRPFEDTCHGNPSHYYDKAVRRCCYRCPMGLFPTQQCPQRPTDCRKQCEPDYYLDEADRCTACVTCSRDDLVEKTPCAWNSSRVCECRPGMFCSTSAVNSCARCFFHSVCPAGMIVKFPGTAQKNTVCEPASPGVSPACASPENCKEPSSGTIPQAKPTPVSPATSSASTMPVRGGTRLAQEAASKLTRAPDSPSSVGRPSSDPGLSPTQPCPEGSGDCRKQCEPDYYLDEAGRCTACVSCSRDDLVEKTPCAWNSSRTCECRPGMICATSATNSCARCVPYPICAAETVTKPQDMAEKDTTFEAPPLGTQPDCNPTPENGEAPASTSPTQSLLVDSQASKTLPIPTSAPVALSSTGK

B1: AC10 H3/L3.28 (antibody, IgG1, name in Kabat numbering, V domains shown)
VH: QIQLVQSGPEVKKPGASVKVSCKASGYTFTDYYITWVRQAPGQGLEWMGWIYPGSGNTKYNEKFQGRFVFSVDTSASTAYLQISSLKAEDTAVYFCANYGNYWFAYWGQGTLVTVSS
VL: DIVLTQSPDSLAVSLGERATINCKASQSVDFDGDSYMDWYQQKPGQPPKVLIYAASNLESGIPARFSGSGSGTDFTLTINSLEAEDAATYYCQQSNEDPWTFGGGTKVEIK
B2: AC10 H3/L3.27 (antibody, IgG1, name in Kabat numbering, V domains shown)
VH: B1 VH
VL: B1 VL with D38A
B3: AC10 H3/L3.17 (antibody, IgG1, name in Kabat numbering, V domains shown)
VH: B1 VH
VL: B1 VL with D34K, D38N
B4: AC10 H3/L3.24 (antibody, IgG1, name in Kabat numbering, V domains shown)
VH: B1 VH
VL: B1 VL with Y36D, D38N
B5: AC10 H3/L3.21 (antibody, IgG1, name in Kabat numbering, V domains shown)
VH: B1 VH
VL: B1 VL with S35D, D38N
B6: AC10 H3/L3.8 (antibody, IgG1, name in Kabat numbering, V domains shown)
VH: B1 VH
VL: B1 VL with S28D, D38N
B7: AC10 H3/L3.15 (antibody, IgG1, name in Kabat numbering, V domains shown)
VH: B1 VH
VL: B1 VL with F31Y, D38N
B8: AC10 H3/L3.1 (antibody, IgG1, name in Kabat numbering, V domains shown)
VH: B1 VH
VL: B1 VL with D1A, D38N
B9: AC10 H3/L3.18 (antibody, IgG1, name in Kabat numbering, V domains shown)
VH: B1 VH
VL: B1 VL with D34N, D38N
B10: AC10 H3/L3.2 (antibody, IgG1, name in Kabat numbering, V domains shown)
VH: B1 VH
VL: B1 VL with D1E, D38N
B11: AC10 H3/L3.9 (antibody, IgG1, name in Kabat numbering, V domains shown)
VH: B1 VH
VL: B1 VL with V29I, D38N
B12: AC10 H3/L3.3 (antibody, IgG1, name in Kabat numbering, V domains shown)
VH: B1 VH
VL: B1 VL with D1N, D38N
B13: AC10 H3/L3.16 (antibody, IgG1, name in Kabat numbering, V domains shown)
VH: B1 VH
VL: B1 VL with D32N, D38N
B14: AC10 H3/L3.19 (antibody, IgG1, name in Kabat numbering, V domains shown)
VH: B1 VH
VL: B1 VL with D34S, D38N
B15: AC10 H3/L3.4 (antibody, IgG1, name in Kabat numbering, V domains shown)
VH: B1 VH
VL: B1 VL with D1S, D38N
B16: AC10 H3/L3.22 (antibody, IgG1, name in Kabat numbering, V domains shown)
VH: B1 VH
VL: B1 VL with S35T, D38N
B17: AC10 H3/L3.5 (antibody, IgG1, name in Kabat numbering, V domains shown)
VH: B1 VH
VL: B1 VL with V3Q, D38N
B18: AC10 H3/L3.6 (antibody, IgG1, name in Kabat numbering, V domains shown)
VH: B1 VH
VL: B1 VL with L4M, D38N
B19: AC10 H3/L3.25 (antibody, IgG1, name in Kabat numbering, V domains shown)
VH: B1 VH
VL: B1 VL with M37L, D38N
B20: AC10 H3/L3.12 (antibody, IgG1, name in Kabat numbering, V domains shown)
VH: B1 VH
VL: B1 VL with D30V, D38N
B21: AC10 H3/L3.13 (antibody, IgG1, name in Kabat numbering, V domains shown)
VH: B1 VH
VL: B1 VL with F31D, D38N
B22: AC10 H3/L3.23 (antibody, IgG1, name in Kabat numbering, V domains shown)
VH: B1 VH
VL: B1 VL with S35N, D38N
B23: AC10 H3/L3.20 (antibody, IgG1, name in Kabat numbering, V domains shown)
VH: B1 VH
VL: B1 VL with D34Y, D38N
B24: AC10 H3.41/L3 (antibody, IgG1, name in Kabat numbering, V domains shown)
VH: B1 VH with Q65T
VL: B1 VL with D38N
B25: AC10 H3.42/L3 (antibody, IgG1, name in Kabat numbering, V domains shown)
VH: B1 VH with V72L
VL: B1 VL with D38N
B26: AC10 H3.50/L3 (antibody, IgG1, name in Kabat numbering, V domains shown)
VH: B1 VH with A97V
VL: B1 VL with D38N
B27: AC10 H3.63/L3 (antibody, IgG1, name in Kabat numbering, V domains shown)
VH: B1 VH with Y106F
VL: B1 VL with D38N
B28: AC10 H3.48/L3 (antibody, IgG1, name in Kabat numbering, V domains shown)
VH: B1 VH with F95Y
VL: B1 VL with D38N
B29: AC10 H3.57/L3 (antibody, IgG1, name in Kabat numbering, V domains shown)
VH: B1 VH with A105D
VL: B1 VL with D38N
B30: AC10 H3.58/L3 (antibody, IgG1, name in Kabat numbering, V domains shown)
VH: B1 VH with A105Q
VL: B1 VL with D38N
B31: AC10 H3.59/L3 (antibody, IgG1, name in Kabat numbering, V domains shown)
VH: B1 VH with Y106H
VL: B1 VL with D38N
B32: AC10 H3.53/L3 (antibody, IgG1, name in Kabat numbering, V domains shown)
VH: B1 VH with N98K
VL: B1 VL with D38N
B33: AC10 H3.52/L3 (antibody, IgG1, name in Kabat numbering, V domains shown)
VH: B1 VH with N98H
VL: B1 VL with D38N
B34: AC10 H3.54/L3 (antibody, IgG1, name in Kabat numbering, V domains shown)
VH: B1 VH with N98R
VL: B1 VL with D38N
B35: AC10 H3.60/L3 (antibody, IgG1, name in Kabat numbering, V domains shown)
VH: B1 VH with Y106S
VL: B1 VL with D38N
B36: AC10 H3.55/L3 (antibody, IgG1, name in Kabat numbering, V domains shown)
VH: B1 VH with N98T
VL: B1 VL with D38N
B37: AC10 H3.43/L3 (antibody, IgG1, name in Kabat numbering, V domains shown)
VH: B1 VH with V72M
VL: B1 VL with D38N
B38: AC10 H3.46/L3 (antibody, IgG1, name in Kabat numbering, V domains shown)
VH: B1 VH with V93M
VL: B1 VL with D38N
B39: AC10 H3.61/L3 (antibody, IgG1, name in Kabat numbering, V domains shown)
VH: B1 VH with Y106V
VL: B1 VL with D38N
B40: AC10 H3.64/L3 (antibody, IgG1, name in Kabat numbering, V domains shown)
VH: B1 VH with Q109R
VL: B1 VL with D38N
B41: AC10 H3.44/L3 (antibody, IgG1, name in Kabat numbering, V domains shown)
VH: B1 VH with V72R
VL: B1 VL with D38N
B42: AC10 H3.45/L3 (antibody, IgG1, name in Kabat numbering, V domains shown)
VH: B1 VH with T91M
VL: B1 VL with D38N
B43: AC10 H3.62/L3 (antibody, IgG1, name in Kabat numbering, V domains shown)
VH: B1 VH with Y106L
VL: B1 VL with D38N
B44: AC10 H3.49/L3 (antibody, IgG1, name in Kabat numbering, V domains shown)
VH: B1 VH with A97T
VL: B1 VL with D38N

What follows are binders tested against T1, human CD30 (commercial, conjugated to …) (assay: AlphaScreen competition).

Row | Binder | Fold IC50 vs H3/L3
1 | B1 | 0.41 fold
2 | B2 | 0.38 fold
3 | B3 | 1.21 fold
4 | B4 | 0.46 fold
5 | B5 | 0.81 fold
6 | B6 | 0.94 fold
7 | B7 | 0.63 fold
8 | B8 | 1.3 fold
9 | B9 | 1.45 fold
10 | B10 | 1.24 fold
11 | B11 | 0.58 fold
12 | B12 | 1.66 fold
13 | B13 | 1.61 fold
14 | B14 | 1.13 fold
15 | B15 | 1.04 fold
16 | B16 | 0.46 fold
17 | B17 | 1.32 fold
18 | B18 | 1.64 fold
19 | B19 | 1.36 fold
20 | B20 | 1.15 fold
21 | B21 | 0.32 fold
22 | B22 | 0.71 fold
23 | B23 | 0.78 fold

Molecular target: T1, human CD30 (commercial, conjugated to …)
Assay: AlphaScreen competition
Remark: another data set of the same source

Row | Binder | Fold IC50 vs H3/L3
24 | B24 | 1.38 fold
25 | B25 | 0.66 fold
26 | B26 | 1.4 fold
27 | B27 | 1.24 fold
28 | B28 | 1.6 fold
29 | B29 | 0.53 fold
30 | B30 | 0.16 fold
31 | B31 | 1.05 fold
32 | B32 | 0.02 fold
33 | B33 | 1.24 fold
34 | B34 | 0 fold
35 | B35 | 0.82 fold
36 | B36 | 0.91 fold
37 | B37 | 0.88 fold
38 | B38 | 1.39 fold
39 | B39 | 1.21 fold
40 | B40 | 1.28 fold
41 | B41 | 1.76 fold
42 | B42 | 1.14 fold
43 | B43 | 1.22 fold
44 | B44 | 0.38 fold
